Data: patent US20210290602A1

T1: purified recombinant CSPα^WT (E. coli, GST removed by TEV protease) (Homo sapiens (Human)), Q9H3Z4
T1 chain: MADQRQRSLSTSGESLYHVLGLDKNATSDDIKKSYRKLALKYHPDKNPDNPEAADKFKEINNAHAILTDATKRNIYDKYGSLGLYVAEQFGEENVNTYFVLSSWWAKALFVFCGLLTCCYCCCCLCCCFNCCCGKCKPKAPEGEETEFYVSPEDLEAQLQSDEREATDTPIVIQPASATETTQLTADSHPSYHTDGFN

T2: purified recombinant CSPα^L115R (E. coli, GST removed by TEV protease) (Homo sapiens (Human)), Q9H3Z4
T2 chain: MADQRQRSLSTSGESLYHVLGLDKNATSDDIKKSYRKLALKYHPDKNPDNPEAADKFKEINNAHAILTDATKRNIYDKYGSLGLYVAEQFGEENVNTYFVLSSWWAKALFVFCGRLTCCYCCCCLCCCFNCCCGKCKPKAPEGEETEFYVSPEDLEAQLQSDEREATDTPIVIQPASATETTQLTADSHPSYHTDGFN


Experiments:
[1] = target: T1, purified recombinant CSPα^WT (E. coli, …); assay: self-oligomerization of purified recombinant protein, SDS-PAGE and quantitative anti-CSPα immunoblot; settings: remark: other sources report otherwise
[2] = target: T2, purified recombinant CSPα^L115R (E. …); assay: as above; settings: remark: other sources report otherwise

| Binder | percent of protein existing as oligomers [1] | percent of protein existing as oligomers [2] |
| --- | --- | --- |
| purified recombinant CSPα^WT (E. coli, GST removed by TEV protease), Q9H3Z4 1-198 (protein, here or on the partner: Fe-S clusters bound at the Cys-string of the E. coli protein. No palmitoylation in bacteria.; Fe-S clusters bound at the Cys-string of the E. coli protein. No palmitoylation in bacteria.) MADQRQRSLSTSGESLYHVLGLDKNATSDDIKKSYRKLALKYHPDKNPDNPEAADKFKEINNAHAILTDATKRNIYDKYGSLGLYVAEQFGEENVNTYFVLSSWWAKALFVFCGLLTCCYCCCCLCCCFNCCCGKCKPKAPEGEETEFYVSPEDLEAQLQSDEREATDTPIVIQPASATETTQLTADSHPSYHTDGFN | 75% |  |
| purified recombinant CSPα^L115R (E. coli, GST removed by TEV protease), Q9H3Z4 1-198 (protein, here or on the partner: Fe-S clusters bound at the Cys-string of the E. coli protein.; Fe-S clusters bound at the Cys-string of the E. coli protein.) MADQRQRSLSTSGESLYHVLGLDKNATSDDIKKSYRKLALKYHPDKNPDNPEAADKFKEINNAHAILTDATKRNIYDKYGSLGLYVAEQFGEENVNTYFVLSSWWAKALFVFCGRLTCCYCCCCLCCCFNCCCGKCKPKAPEGEETEFYVSPEDLEAQLQSDEREATDTPIVIQPASATETTQLTADSHPSYHTDGFN |  | 75% |
